Source: patent US8663616B2, “Enzymatic peracid generation for use in oral care products” (E I du Pont de Nemours and Company, priority 2010, dated 2014)

B1: EZ-7: C277S-link1-DenP308-H6, SEQ ID NO: 429 (protein)
chain: MAFFDLPLEELKKYRPERYEEKDFDEFWEETLAESEKFPLDPVFERMESHLKTVEAYDVTFSGYRGQRIKGWLLVPKLEEEKLPCVVQYIGYNGGRGFPHDWLFWPSMGYICFVMDTRGQGSGWLKGDTPDYPEGPVDPQYPGFMTRGILDPRTYYYRRVFTDAVRAVEAAASFPQVDQERIVIAGGSQGGGIALAVSALSKKAKALLCDVPFLCHFRRAVQLVDTHPYAEITNFLKTHRDKEEIVFRTLSYFDGVNFAARAKIPALFSVGLMDNISPPSTVFAAYNYYAGPKEIRIYPYNNHEGGGSFQAVEQVKFLKKLFEKGGPGSGGAGSPGSAGGPGSTKPPRTPTANTSRPHHNFGSGGGGSPHHHHHH
B2: EZ-1: Thermotoga maritima acetyl xylan esterase variant C277S, untargeted perhydrolase, SEQ ID NO: 424 (protein, listed as Thermotoga maritima)
chain: MAFFDLPLEELKKYRPERYEEKDFDEFWEETLAESEKFPLDPVFERMESHLKTVEAYDVTFSGYRGQRIKGWLLVPKLEEEKLPCVVQYIGYNGGRGFPHDWLFWPSMGYICFVMDTRGQGSGWLKGDTPDYPEGPVDPQYPGFMTRGILDPRTYYYRRVFTDAVRAVEAAASFPQVDQERIVIAGGSQGGGIALAVSALSKKAKALLCDVPFLCHFRRAVQLVDTHPYAEITNFLKTHRDKEEIVFRTLSYFDGVNFAARAKIPALFSVGLMDNISPPSTVFAAYNYYAGPKEIRIYPYNNHEGGGSFQAVEQVKFLKKLFEKG

What was measured:
[1] = Peracetic acid from C277S CXH fusions exposed to hydroxyapatite discs (Example 9); conditions: no enzyme control subtracted
[2] = Peracetic acid generated after each round of two-step whitening, ABTS (Example 17); assay type: biochemical, bovine; conditions: for PAA (ppm) generated after each round of whitening, Rd2: round 2; for PAA (ppm) generated after each round of whitening, Rd3: round 3; for PAA (ppm) generated after each round of whitening, Rd4: round 4; for PAA (ppm) generated after each round of whitening, Rd5: round 5; for PAA (ppm) generated after each round of whitening, Rd1: step 1 enzyme or buffer, step 2 triacetin/H2O2, round 1
Method: The samples were diluted 1:100 with 100 mM phosphate buffer and added to ABTS detection reagent as noted in Example 8. Each sample data point represents 2 repeats of independent enamel blocks.

[3] = Peracetic acid generated in solution by C277S CXH fusions (Example 9); conditions: 0.5 μM enzyme, sarkosyl buffer, 100 mM triacetin, 100 mM H2O2, pH 7.2, 10 min, 37° C.
[4] = Peracetic acid generation from hydroxyapatite bound CE-7 perhydrolase fusions (Example 8); assay type: biochemical; conditions: hydroxyapatite particles exposed to 10 μM enzyme, washed; 100 mM triacetin, 100 mM H2O2, 30 min, 37° C.; no enzyme 30-118.8
How it was run: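 Enzyme (10 μM) bound to washed hydroxyapatite particles in 10 mM phosphate pH 7.2 for 30 min, washed three times, then given 100 mM triacetin plus 100 mM H2O2 in 100 mM phosphate pH 7.2, 30 min, 37 °C. Peracetic acid read by ABTS oxidation at 405 nm against standard curve; no-enzyme control.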

[5] = Peracetic acid generated in solution by CE-7 perhydrolase fusions (Example 8); assay type: biochemical; conditions: 0.5 μM enzyme, 100 mM triacetin, 100 mM H2O2, pH 7.2, 10 min, 37° C.; no enzyme 378.9
Method: The detection of peracetic acid followed the method described in Pinkernell et. al. (Analyst, 1997, 122, 567) using colorimetric detection of 2,2′-azino-bis(3-ethylbenzothiazoline(-6-sulfonate (ABTS) oxidation by peracetic acid. Following the formation of peracetic acid with the addition of triacetin and hydrogen peroxide, 90 μL of solution was added to 10 μL of 0.1 M H3PO4 in a well plate. 50 μL of 1 M acetic acid, 50 μL of 0.5 g/L ABTS and 50 μL of 0.002 g/L of KI was added. The solution was allowed to develop for 5 min. The absorbance of the solution was measured at 405 nm using a microplate reader. The peracetic acid concentration was calculated based on a standard curve developed simultaneously using peracetic acid reagent solution.
Perhydrolase enzymes listed in Table 6 were assessed for solution activities. The method to measure the perhydrolase in solution activity was described in Example 7 by making a 500 μL solution containing 0.5 μM of enzyme, 100 mM triacetin, 100 mM H2O2 in 100 mM phosphate buffer, pH 7.2. The solution was mixed and incubated for 10 min at 37° C. A 10 μL aliquot was removed and diluted for detection as described in Example 7. Peracetic acid concentration was determined using a standard curve generated with a stock solution of peracetic acid (Aldrich). The experiment was also performed with no enzyme present as a control.

[6] = Maximum peracetic acid by targeted and untargeted CE-7 perhydrolase with sucrose octaacetate; assay type: biochemical; conditions: substrate sucrose octaacetate; same reaction conditions as Table 20
Method: These ester substrates were tested for peracetic acid production using a targeted C277S perhydrolase variant, EZ-7 under the same reaction conditions used to generate date for Table 20. Peracetic acid production using propylene glycol diacetate or sucrose octaacetate with the EZ-7 perhydrolase system is shown in Table 21.

[7] = T. maritima C277S/C277T constructs, peracetic acid in solution (Example 11); assay type: biochemical; conditions: 0.5 μM enzyme, 100 mM triacetin, 100 mM H2O2, pH 7.2, 10 min, 37° C.; no enzyme 114
How it was run: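 Each perhydrolase at 0.5 μM incubated with 100 mM triacetin and 100 mM H2O2 in 10 mM phosphate buffer pH 7.2, 10 min at 37° C, then stopped with H3PO4. Peracetic acid quantified by ABTS/KI oxidation, absorbance at 405 nm, against a peracetic acid standard curve.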

[8] = Two-step bleaching of coffee-tea stained bovine enamel (Example 16)
How it was run: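 Stained bovine enamel blocks, dentin side shielded, pretreated 60 min with 10 μM enzyme in 10 mM phosphate pH 7.2, then rinsed. Bleached in 40 mM triacetin plus 100 mM H2O2 in 50 mM phosphate pH 7.2 (final). Colour measured repeatedly over 1 hr and whiteness index followed.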

Row | Molecule | Peracetic acid (ppm) Exposed to Hydroxyapatite, Disc ([1]; disc-bound enzyme, 100 mM triacetin, 100 mM H2O2, 30 min, 37° C.) [ppm] | Peracetic acid (ppm) Exposed to Hydroxyapatite, Supernatant ([1]; unbound enzyme in supernatant after 10 μM enzyme on disc) [ppm] | PAA (ppm) generated after each round of whitening, Rd2 [2] [ppm] | PAA (ppm) generated after each round of whitening, Rd3 [2] [ppm] | PAA (ppm) generated after each round of whitening, Rd4 [2] [ppm] | PAA (ppm) generated after each round of whitening, Rd5 [2] [ppm] | PAA (ppm) generated after each round of whitening, Rd1 [2] [ppm] | Peracetic acid (ppm) In Solution [3] [ppm] | Peracetic acid (ppm) [4] [ppm] | PAA (ppm) [5] [ppm] | Maximum Peracetic Acid (ppm), Sucrose octaacetate [6] [ppm] | Peracetic acid (ppm) In Solution [7] [ppm] | retention on hydroxyapatite and enamel (in words) ([8]; 2-step process) | Whiteness Index 0 min ([8]; two-step: 10 μM enzyme 60 min, rinsed, then 40 mM triacetin, 100 mM H2O2, pH 7.2, before step 2) | ΔWI ([8]; two-step, 0 to 60 min) | Whiteness Index 5 min ([8]; two-step, 5 min in triacetin/H2O2) | Whiteness Index 15 min ([8]; two-step, 15 min in triacetin/H2O2) | Whiteness Index 30 min ([8]; two-step, 30 min in triacetin/H2O2) | Whiteness Index 45 min ([8]; two-step, 45 min in triacetin/H2O2) | Whiteness Index 60 min ([8]; two-step, 60 min in triacetin/H2O2)
1 | B1 | 2017 | 4864 | 496.7 | 716.5 | 998.5 | 1224.5 | 383.5 | 5471 | 4453.7 | 4877.2 | 2070 | 5519 |  |  |  |  |  |  |  | 
2 | B2 |  |  | 41.0 | 30.2 | 39.3 | 47.1 | 33.2 |  |  |  | 2768 | 4270 | poor retention on hydroxyapatite and enamel | −152.7 | 56.6 | −126.2 | −138.9 | −144.8 | −107.3 | −96.1
